{"source": "paper PMC11746035", "about": "(Frontiers in Immunology, 2024)", "target": "T1, SARS-CoV-2 BQ.1.1 RBD (SARS-CoV-2, Omicron BQ.1.1, L452R | K444T)", "T1 construct": "also called L452R RBD of BQ.1.1", "experiment": "BLI; antibody (IgG1, 11 μg/mL) loaded on AHC2 biosensor to about 1.5 nm; RBD in solution, association 300 s, dissociation 600 s; PBS-TB (PBS, 0.02% v/v Tween-20, 0.1% w/v BSA); 25°C; 1,000 rpm; binding response less than 0.1 considered non-binding", "details": "both partners purified", "data": [{"binder": "BD57-028 N56 allelic variant (antibody, V domains shown, as the heavy chain of m8, with N56 in place of D56; numbers count on: IMGT unique numbering, excluding any gaps; as the light chain of m8; IgG1; also called N56 allele) VH: QITLKESGPTLVKPTQTLTLTCTFSGFSLSASGEGMGWIRQPPGKALEWLALIYWNADERYSPSLRSRLTITKDTSKNQVVLKMTNMNPVDTATYYCAHHSITTVVDYWGQGMLVTVSS VL: QSALTQPASVSGSPGQSITISCTGTISDVGAFNYVSWYQQHPGRAPKLIIYDVSTRPSGISIRFSGSKSGNTASLTISGLQPEDEADYYCSSYSHTSLVFGTGTKVTVL", "values": [{"measurement": "fold increase in binding affinity against the D56 variant", "result": 57, "unit": "fold"}]}, {"binder": "BD56-595 N56 allelic variant (antibody, V domains shown, as the heavy chain of m12, with N56 in place of D56; numbers count on: IMGT unique numbering, excluding any gaps; as the light chain of m12; IgG1; also called N56 allele) VH: QITLKESGPTLVKPTQTLTLTCTFSGFSITTAGVGVGWIRQPPGKALEWLALIYWNGDRRYSPSLKNRVDITTDISKNQVVLTMTNMAPVDTATYYCAQHTIDMILDYWGQGTLVTVSS VL: QSALTQPPSASGSPGQSVTISCTATSSDVGAYNYVSWYQQHPGKAPKLMIYEVNKRPSGVPDRFSGSKSGNTASLTVSGLQAEDEADYYCSSYTDNIVFGTGTRVTVL", "values": [{"measurement": "fold increase in binding affinity against the D56 variant", "result": 57, "unit": "fold"}]}]}
